Experimental data as given in PMC4417160, “RBM7 subunit of the NEXT complex binds U-rich sequences and targets 3′-end extended forms of snRNAs”.
Positions count from the first letter of the chain named.

Experiments:
Assay in all cases: fluorescence anisotropy; FA: 50 mM Tris pH 7.0 (also given as pH 8), 200 mM NaCl, 10 mM 2-mercaptoethanol, 20 C; NMR: 20 mM Bis-Tris pH 7.0, 200 mM NaCl, 4 mM 2-mercaptoethanol; pull-down: HSB, 1 h at 30 C
Settings in all cases: protein: recombinant; tags: 6xHis-Smt3 removed with Ulp1; label: 5' fluorescein
[1] = target: T1, RBM7 RRM K38A (Homo sapiens, UniProt Q9Y580 6-94, K38A)
T1 sequence: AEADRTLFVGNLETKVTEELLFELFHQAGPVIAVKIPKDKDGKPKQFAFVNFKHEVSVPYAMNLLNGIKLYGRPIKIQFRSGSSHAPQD

[2] = target: T2, RBM7 RRM K40A (Homo sapiens, UniProt Q9Y580 6-94, K40A)
T2 sequence: T1 sequence with A33K, K35A

[3] = target: T3, RBM7 RRM (Homo sapiens (cDNA from HEK293T-Rex), UniProt Q9Y580 6-94)
T3 sequence: T1 sequence with A33K

[4] = target: T4, RBM7 RRM K81A (Homo sapiens, UniProt Q9Y580 6-94, K81A)
T4 sequence: T1 sequence with A33K, K76A

Binder	Kd [3] [µM]	other results
CUCUCUC (ssRNA) [Y7]	70 ± 10	Kd [1]: 90 ± 10 µM; Kd [2]: 200 ± 20 µM; Kd [4]: 100 ± 10 µM
UUUUUUU (ssRNA) [U7]	60 ± 10	
CUUCU (ssRNA) [Y5]	90 ± 10	
AAAAAAA (ssRNA) [A7]		binding result [3]: no binding
CUCU (ssRNA) [Y4]	160 ± 10	
AUUAUUA (ssRNA) [AU7]	130 ± 10	
